We go through six sequences from the supplement of paper PMC11246515.

This data set is described as follows: total protein half-life in vivo (active degradation + dilution); higher = more stable protein.
Setting [1] is: E. coli NCM3722 delta-clpP delta-lon delta-hslV, growth: N-lim chemostat, doubling time 6 h.
Setting [2] is: E. coli NCM3722 delta-clpP, growth: N-lim chemostat, doubling time 6 h.
[3] abbreviates: E. coli NCM3722 delta-hslV, growth: N-lim chemostat, doubling time 6 h.
The mark [4] stands for this setting: E. coli NCM3722 delta-lon, growth: N-lim chemostat, doubling time 6 h.
The mark [5] stands for this setting: E. coli NCM3722 delta-smpB, growth: N-lim chemostat, doubling time 6 h.
Where [6] appears, read: wild type E. coli NCM3722, growth: C-lim chemostat, doubling time 6 h.
Where [7] appears, read: wild type E. coli NCM3722, growth: C-lim chemostat, doubling time 12 h.
[8] abbreviates: wild type E. coli NCM3722, growth: N-lim chemostat, doubling time 6 h.
[9] abbreviates: wild type E. coli NCM3722, growth: N-lim chemostat, doubling time 12 h.
Where [10] appears, read: wild type E. coli NCM3722, growth: P-lim chemostat, doubling time 6 h.
The mark [11] stands for this setting: wild type E. coli NCM3722, growth: P-lim chemostat, doubling time 12 h.
Setting [12] is: wild type E. coli NCM3722, growth: C-lim chemostat, doubling time 3 h.

± gives the standard deviation of the averaged measurements.

Regarding “MHPRFQTAFAQLADNLQSALEPILADKYFPALLTGEQVSSLKSATGLDEDALAFALLPLAAACARTPLSNFNVGAIARGVSGTWYFGANMEFIGATMQQTVHAEQSAISHAWLSGEKALAAITVNYTPCGHCRQFMNELNSGLDLRIHLPGREAHALRDYLPDAFGPKDLEIKTLLMDEQDHGYALTGDALSQAAIAAANRSHMPYSKSPSGVALECKDGRIFSGSYAENAAFNPTLPPLQGALILLNLKGYDYPDIQRAVLAEKADAPLIQWDATSATLKALGCHSIDRVLLA [P0ABF6]”, the “total protein half-life in vivo” value by setting is: under setting [1], 5.28 ± 0.35 h; under setting [2], 5.6 ± 0.071 h; under setting [3], 6 ± 1.1 h; under setting [4], 6.28 ± 0.78 h; under setting [5], 4.89 ± 0.18 h; under setting [6], 6.09 ± 0.4 h. Moreover, the “total protein half-life in vivo” value is 10.7 ± 0.78 h under setting [7]; 5.04 ± 0.077 h under setting [8]; 8.624 ± 0.078 h under setting [9]; 5.88 ± 0.059 h under setting [10]; 11.7 ± 0.35 h under setting [11].

Regarding “MIDLYFAPTPNGHKITLFLEEAELDYRLIKVDLGKGGQFRPEFLRISPNNKIPAIVDHSPADGGEPLSLFESGAILLYLAEKTGLFLSHETRERAATLQWLFWQVGGLGPMLGQNHHFNHAAPQTIPYAIERYQVETQRLYHVLNKRLENSPWLGGENYSIADIACWPWVNAWTRQRIDLAMYPAVKNWHERIRSRPATGQALLKAQLGDERSDS”, the “total protein half-life in vivo” value by setting is: under setting [2], 4.37 ± 1.4 h; under setting [3], 4.61 ± 1.6 h; under setting [4], 4.28 ± 0.48 h; under setting [5], 2.94 ± 1.1 h; under setting [12], 3.27 ± 0.89 h; under setting [6], 4.84 ± 0.4 h. Also, the “total protein half-life in vivo” value is, setting by setting: under setting [7], 9.73 ± 0.75 h; under setting [8], 4.02 ± 1.1 h; under setting [9], 6.01 ± 0.55 h; under setting [10], 5.6483 ± 0.0048 h; under setting [11], 11.48 ± 0.07 h.

Take “MPVAHVALPVPLPRTFDYLLPEGMTVKAGCRVRVPFGKQQERIGIVVSVSDASELPLNELKAVVEVLDSEPVFTHSVWRLLLWAADYYHHPIGDVLFHALPILLRQGRPAANAPMWYWFATEQGQAVDLNSLKRSPKQQQALAALRQGKIWRDQVATLEFNDAALQALRKKGLCDLASETPEFSDWRTNYAVSGERLRLNTEQATAVGAIHSAADTFSAWLLAGVTGSGKTEVYLSVLENVLAQGKQALVMVPEIGLTPQTIARFRERFNAPVEVLHSGLNDSERLSAWLKAKNGEAAIVIGTRSALFTPFKNLGVIVIDEEHDSSYKQQEGWRYHARDLAVYRAHSEQIPIILGSATPALETLCNVQQKKYRLLRLTRRAGNARPAIQHVLDLKGQKVQAGLAPALITRMRQHLQADNQVILFLNRRGFAPALLCHDCGWIAECPRCDHYYTLHQAQHHLRCHHCDSQRPVPRQCPSCGSTHLVPVGLGTEQLEQTLAPLFPGVPISRIDRDTTSRKGALEQQLAEVHRGGARILIGTQMLAKGHHFPDVTLVALLDVDGALFSADFRSAERFAQLYTQVAGRAGRAGKQGEVVLQTHHPEHPLLQTLLYKGYDAFAEQALAERRMMQLPPWTSHVIVRAEDHNNQHAPLFLQQLRNLILSSPLADEKLWVLGPVPALAPKRGGRWRWQILLQHPSRVRLQHIINGTLALINTIPDSRKVKWVLDVDPIEG”: the “total protein half-life in vivo” value by setting is: under setting [1], 5.492 ± 0.011 h; under setting [2], 6.24 ± 0.23 h; under setting [3], 5.9 ± 0.067 h; under setting [4], 5.89 ± 0.2 h; under setting [5], 5.23 ± 0.45 h; under setting [12], 2.86 ± 0.03 h. Moreover, the “total protein half-life in vivo” value reads like this: under setting [6], 5.85 ± 0.21 h; under setting [7], 9.53 ± 1.3 h; under setting [8], 5.35 ± 0.074 h; under setting [9], 12.2 ± 1 h; under setting [10], 6.13 ± 0.2 h.

As to “MNPLKAGDIAPKFSLPDQDGEQVNLTDFQGQRVLVYFYPKAMTPGCTVQACGLRDNMDELKKAGVDVLGISTDKPEKLSRFAEKELLNFTLLSDEDHQVCEQFGVWGEKSFMGKTYDGIHRISFLIDADGKIEHVFDDFKTSNHHDVVLNWLKEHA [P0AE52]”, the “total protein half-life in vivo” value stood at 5.42 ± 0.21 h under setting [1]; 5.26 ± 0.76 h under setting [2]; 4.92 ± 0.074 h under setting [3]; 6.45 ± 1.5 h under setting [4]; 4.25 ± 0.079 h under setting [5]; 2.85 ± 0.64 h under setting [12]. The “total protein half-life in vivo” value under setting [6] was 5.36 ± 0.065 h; the “total protein half-life in vivo” value under setting [7] stood at 7.64 ± 0.72 h; the “total protein half-life in vivo” value under setting [8] was found to be 4.08 ± 0.36 h; the “total protein half-life in vivo” value under setting [9] worked out at 7.49 ± 0.41 h; the “total protein half-life in vivo” value under setting [10] was 4.38 ± 0.081 h; the “total protein half-life in vivo” value under setting [11] was 11 ± 0.55 h.

As to “MAQRDYVRRSQPAPSRRKKSTSRKKQRNLPAVSPAMVAIAAAVLVTFIGGLYFITHHKKEESETLQSQKVTGNGLPPKPEERWRYIKELESRQPGVRAPTEPSAGGEVKTPEQLTPEQRQLLEQMQADMRQQPTQLVEVPWNEQTPEQRQQTLQRQRQAQQLAEQQRLAQQSRTTEQSWQQQTRTSQAAPVQAQPRQSKPASSQQPYQDLLQTPAHTTAQSKPQQAAPVARAADAPKPTAEKKDERRWMVQCGSFRGAEQAETVRAQLAFEGFDSKITTNNGWNRVVIGPVKGKENADSTLNRLKMAGHTNCIRLAAGG”, the “total protein half-life in vivo” value by setting is: under setting [1], 4.824 ± 0.04 h; under setting [2], 6.54 ± 1.9 h; under setting [3], 5.87 ± 0.74 h; under setting [4], 5.94 ± 0.43 h; under setting [5], 4.76 ± 0.2 h; under setting [12], 3 ± 0.038 h. Besides, the “total protein half-life in vivo” value under setting [6] came out at 5.351 ± 0.053 h; the “total protein half-life in vivo” value under setting [7] was determined as 9.17 ± 0.79 h; the “total protein half-life in vivo” value under setting [8] was found to be 5.27 ± 0.25 h; the “total protein half-life in vivo” value under setting [9] came to 10.2 ± 0.24 h; the “total protein half-life in vivo” value under setting [10] was found to be 4.421 ± 0.02 h; the “total protein half-life in vivo” value under setting [11] was determined as 9.11 ± 0.63 h.

As to “MAEGKAMSEFLPFSRPAMGVEELAAVKEVLESGWITTGPKNQALEQAFCQLTGNQHAIAVSSATAGMHITLMALKIGKGDEVITPSLTWVSTLNMISLLGATPVMVDVDRDTLMVTPEAIESAITPRTKAIIPVHYAGAPADIDAIRAIGERYGIAVIEDAAHAVGTYYKGRHIGAKGTAIFSFHAIKNITCAEGGLIVTDNENLARQLRMLKFHGLGVDAYDRQTWGRAPQAEVLTPGYKYNLTDINAAIALTQLVKLEHLNTRRREIAQQYQQALAALPFQPLSLPAWPHVHAWHLFIIRVDEQRCGISRDALMEALKERGIGTGLHFRAAHTQKYYRERFPTLSLPNTEWNSERICSLPLFPDMTTADADHVITALQQLAGQ”, the “total protein half-life in vivo” value is, setting by setting: under setting [1], 4.86 ± 0.74 h; under setting [2], 3.7 ± 0.29 h; under setting [3], 3.72 ± 0.19 h; under setting [4], 4.52 ± 0.06 h; under setting [5], 3.93 ± 0.41 h; under setting [12], 3.52 ± 0.55 h. Further, the “total protein half-life in vivo” value is, setting by setting: under setting [6], 4.78 ± 0.6 h; under setting [7], 9.35 ± 0.95 h; under setting [8], 3.78 ± 0.055 h; under setting [9], 6.38 ± 0.47 h; under setting [10], 5.53 ± 0.55 h; under setting [11], 11.7 ± 0.21 h.
